Source: the Immune Epitope Database (IEDB)

Assays:
HLA-A*02:01 = assay: IEDB peptide-MHC binding, purified MHC/competitive/radioactivity; filed as Kd, often an IC50 or EC50 that approximates it; ≥ and ≤ were set here for values at or beyond the usual limits of such assays
HLA-A*02:17 = assay: as above
HLA-B*51:01 = assay: as above
HLA-A*30:01 = assay: as above; details: source organism: Vaccinia virus WR
HLA-B*15:03 = assay: as above
HLA-B*08:01 = assay: as above
HLA-B*15:01 = assay: as above; details: source organism: Vaccinia virus WR
HLA-A*32:01 = assay: as above
HLA-A*68:02 = assay: as above
HLA-A*24:03 = assay: IEDB peptide-MHC binding, purified MHC/direct/fluorescence; filed as Kd, often an IC50 or EC50 that approximates it; ≥ and ≤ were set here for values at or beyond the usual limits of such assays; details: source organism: Escherichia coli O157:H7
HLA-A*02:03 = assay: IEDB peptide-MHC binding, purified MHC/competitive/radioactivity; filed as Kd, often an IC50 or EC50 that approximates it; ≥ and ≤ were set here for values at or beyond the usual limits of such assays
HLA-A*02:02 = assay: as above
HLA-A*02:06 = assay: as above
HLA-B*35:01 = assay: as above
HLA-B*07:02 = assay: as above; details: source organism: Dengue virus 4 Philippines/H241/1956
HLA-B*18:01 = assay: IEDB peptide-MHC binding, purified MHC/direct/fluorescence; filed as Kd, often an IC50 or EC50 that approximates it; ≥ and ≤ were set here for values at or beyond the usual limits of such assays; details: source organism: Mycobacterium ulcerans
[1] = source organism: Dengue virus 4 Philippines/H241/1956
[2] = source organism: Dengue virus 2 Jamaica/1409/1983
[3] = source organism: Vaccinia virus WR
[4] = source organism: Lassa virus Josiah
[5] = source organism: Dengue virus 1 Nauru/West Pac/1974
[6] = source organism: Trypanosoma cruzi
[7] = source organism: Dengue virus 1 Brazil/97-11/1997
[8] = source organism: Dengue virus 1 Singapore/S275/1990
[9] = source organism: Dengue virus 3 China/80-2/1980
[10] = source organism: Vaccinia virus Copenhagen

**Q.** Which Kd (HLA-A*02:01; [1]) does the source give for ALLAGFMAYM here?
**A.** 5.69 nM

**Q.** And the Kd (HLA-A*02:17; [1])?
**A.** 34 nM

**Q.** LPLPWLPGA was tested. Which Kd (HLA-B*51:01; [2]) did it give?
**A.** 651 nM

**Q.** With MCIKYTACM as the sequence, how does the Kd (HLA-A*30:01) read?
**A.** ≥ 26600 nM

**Q.** And the Kd (HLA-B*15:03; [3])?
**A.** 51.9 nM

**Q.** And the Kd (HLA-B*08:01; [3])?
**A.** 7.75 nM

**Q.** What about the Kd (HLA-B*15:01) of the same sequence?
**A.** 954 nM

**Q.** What about the Kd (HLA-A*32:01; [3]) of the same sequence?
**A.** 16200 nM

**Q.** NIVSSVNMV was tested. Which Kd (HLA-A*68:02; source organism: Dengue virus 3 Sri Lanka/1266/2000) did it give?
**A.** 212 nM

**Q.** RTLNELWFL was tested. Which Kd (HLA-A*24:03) did it give?
**A.** 3.5 nM

**Q.** Which results are given for RQFYNANVL?
**A.** Kd (HLA-B*15:03; [3]): 0.236 nM; Kd (HLA-A*32:01; [3]): 37.2 nM

**Q.** How did the Kd (HLA-A*02:03; [2]) turn out when TLYAVATTFV was run?
**A.** 2.65 nM

**Q.** What about the Kd (HLA-A*02:01; [2]) of the same sequence?
**A.** 12.6 nM

**Q.** What about the Kd (HLA-A*68:02; [2]) of the same sequence?
**A.** 11.5 nM

**Q.** What about the Kd (HLA-A*02:17; [2]) of the same sequence?
**A.** 490 nM

**Q.** How did the Kd (HLA-A*02:03; [4]) turn out when LMSIISTFHL was run?
**A.** 122 nM

**Q.** And the Kd (HLA-A*02:02; [4])?
**A.** 100 nM

**Q.** And the Kd (HLA-A*02:06; [4])?
**A.** 411 nM

**Q.** And the Kd (HLA-A*68:02; [4])?
**A.** 361 nM

**Q.** For SKVFFGPIY, which Kd (HLA-B*15:03; [3]) is on record?
**A.** 1.02 nM

**Q.** How did the Kd (HLA-A*30:01) turn out when ALLELFNAF was run?
**A.** 357 nM

**Q.** What about the Kd (HLA-B*15:03; [3]) of the same sequence?
**A.** 0.241 nM

**Q.** What about the Kd (HLA-B*08:01; [3]) of the same sequence?
**A.** 2690 nM

**Q.** What about the Kd (HLA-B*15:01) of the same sequence?
**A.** 2.48 nM

**Q.** And the Kd (HLA-A*32:01; [3])?
**A.** 166 nM

**Q.** With KSHAAYIDY as the sequence, how does the Kd (HLA-A*30:01) read?
**A.** 12 nM

**Q.** And the Kd (HLA-B*15:03; [3])?
**A.** 1.67 nM

**Q.** What about the Kd (HLA-B*08:01; [3]) of the same sequence?
**A.** ≥ 77700 nM

**Q.** And the Kd (HLA-B*15:01)?
**A.** 1.84 nM

**Q.** And the Kd (HLA-A*32:01; [3])?
**A.** 875 nM

**Q.** How did the Kd (HLA-B*15:03; [3]) turn out when KQPEGVILF was run?
**A.** 3.65 nM

**Q.** With MSFRDLGRV as the sequence, how does the Kd (HLA-A*68:02; [2]) read?
**A.** 19.6 nM

**Q.** For EMETLQSQL, which Kd (HLA-A*02:06; source organism: Homo sapiens) is on record?
**A.** ≥ 61100 nM

**Q.** What about the Kd (HLA-A*68:02; source organism: Homo sapiens) of the same sequence?
**A.** 12300 nM

**Q.** For QIFGTAYGV, which Kd (HLA-A*02:06; [5]) is on record?
**A.** 3.61 nM

**Q.** And the Kd (HLA-A*68:02; [5])?
**A.** 2.31 nM

**Q.** How did the Kd (HLA-A*68:02; source organism: Homo sapiens) turn out when LLQSKNAGAV was run?
**A.** ≥ 65200 nM

**Q.** For LSIFFYSSF, which Kd (HLA-A*30:01) is on record?
**A.** 131 nM

**Q.** What about the Kd (HLA-B*15:03; [3]) of the same sequence?
**A.** 0.218 nM

**Q.** What about the Kd (HLA-B*15:01) of the same sequence?
**A.** 17.3 nM

**Q.** And the Kd (HLA-A*32:01; [3])?
**A.** 129 nM

**Q.** With FTNNKFTLS as the sequence, how does the Kd (HLA-A*02:03; [6]) read?
**A.** 460 nM

**Q.** What about the Kd (HLA-A*02:01; [6]) of the same sequence?
**A.** ≥ 50000 nM

**Q.** And the Kd (HLA-A*02:02; [6])?
**A.** 10100 nM

**Q.** What about the Kd (HLA-A*02:06; [6]) of the same sequence?
**A.** 328 nM

**Q.** And the Kd (HLA-A*68:02; [6])?
**A.** 496 nM

**Q.** Which Kd (HLA-B*51:01; [7]) does the source give for WPISKMDLGV here?
**A.** 3160 nM

**Q.** How did the Kd (HLA-A*30:01) turn out when IASTLIVTI was run?
**A.** 10.1 nM

**Q.** And the Kd (HLA-B*15:03; [3])?
**A.** 110 nM

**Q.** And the Kd (HLA-B*08:01; [3])?
**A.** 8400 nM

**Q.** And the Kd (HLA-B*15:01)?
**A.** 156 nM

**Q.** And the Kd (HLA-A*32:01; [3])?
**A.** 73.5 nM

**Q.** Which results are given for LLGLCGFSAL?
**A.** Kd (HLA-A*02:03; [6]): 14.1 nM; Kd (HLA-A*02:01; [6]): 365 nM; Kd (HLA-A*02:02; [6]): 10.4 nM; Kd (HLA-A*02:06; [6]): 629 nM; Kd (HLA-A*68:02; [6]): ≥ 125000 nM

**Q.** With FLEEMLRTRV as the sequence, how does the Kd (HLA-A*02:01; [2]) read?
**A.** 27.2 nM

**Q.** What about the Kd (HLA-A*02:17; [2]) of the same sequence?
**A.** 137 nM

**Q.** For QPKPGTRMVM, which Kd (HLA-B*35:01; [1]) is on record?
**A.** 1230 nM

**Q.** What about the Kd (HLA-B*07:02) of the same sequence?
**A.** 8.33 nM

**Q.** What does the source list for ILLMRTTWAL?
**A.** Kd (HLA-A*02:01; [8]): 1.7 nM; Kd (HLA-B*08:01; [7]): 12.2 nM; Kd (HLA-A*02:17; [8]): 21.7 nM

**Q.** How did the Kd (HLA-A*68:02; source organism: Homo sapiens) turn out when AMITDLEERL was run?
**A.** 784 nM

**Q.** With RASSGDSSF as the sequence, how does the Kd (HLA-B*15:03; [3]) read?
**A.** 20.6 nM

**Q.** For GLLCISIMI, which Kd (HLA-A*02:01; [8]) is on record?
**A.** 29 nM

**Q.** And the Kd (HLA-A*02:17; [8])?
**A.** ≥ 23700 nM

**Q.** Which results are given for YAMCLNTFVL?
**A.** Kd (HLA-A*02:01; [9]): 11.4 nM; Kd (HLA-B*35:01; source organism: Dengue virus 3 Singapore/8120/1995): 43.4 nM; Kd (HLA-A*02:17; [9]): 110 nM

**Q.** Which Kd (HLA-B*18:01) does the source give for AEREPFQYF here?
**A.** 208 nM

**Q.** With SQVKCCHYF as the sequence, how does the Kd (HLA-A*30:01) read?
**A.** 80.6 nM

**Q.** And the Kd (HLA-B*15:03; [3])?
**A.** 0.92 nM

**Q.** What about the Kd (HLA-B*08:01; [3]) of the same sequence?
**A.** 7240 nM

**Q.** What about the Kd (HLA-B*15:01) of the same sequence?
**A.** 0.921 nM

**Q.** What about the Kd (HLA-A*32:01; [3]) of the same sequence?
**A.** 11400 nM

**Q.** VSFNRVVIF was tested. Which Kd (HLA-B*15:03; [10]) did it give?
**A.** 1.05 nM

**Q.** And the Kd (HLA-A*32:01; [10])?
**A.** 559 nM
